Sequences and labels used below:
B1: SAM and SH3 domain-containing protein 1, residues 630 to 700; numbered along this chain, O94885 (parent)
chain: GRPPQPKSVEDLLDRINLKEHMPTFLFNGYEDLDTFKLLEEEDLDELNIRDPEHRAVLLTAVELLQEYDSN
B2: Proto-oncogene vav, residues 782 to 842; numbered along this chain, P15498 (parent)
chain: KYFGTAKARYDFCARDRSELSLKEGDIIKILNKKGQQGWWRGEIYGRVGWFPANYVEEDYS

± gives the uncertainty stated by the source.

Variants of B1 are the subject of one data set. Nature of the data set: abundance fitness (aPCA) (normalised: wild type 0, dead -1); higher = more abundant; growth selection in yeast, the domain comes from the species named. To be noted: Homo sapiens.
E53Y: the abundance fitness was -0.557 ± 0.063. Turning to E53S, the abundance fitness was -0.126 ± 0.037. Turning to A56R, the abundance fitness came out at 0.191 ± 0.034. On the same count and under the same terms, under E67F stands -0.609 ± 0.063; under N71H, 0.056 ± 0.048. For L12T, the abundance fitness was -0.829 ± 0.071. Still for that read-out and setting: with L12C the figure was -0.654 ± 0.077; with L12V, -0.464 ± 0.045.

On to L26T, for which the abundance fitness was -0.225 ± 0.043. The same measure, in the same setting: with L26A the figure was -0.117 ± 0.04; with Y30C, -0.704 ± 0.076; with Y30T, -0.906 ± 0.07. Same read-out and setting: under Y30L stands -0.557 ± 0.049; under M22T, 0.009 ± 0.04; under P52Y, -1.02 ± 0.097. In the case of P52V, the abundance fitness was -0.5 ± 0.05. L39E: the abundance fitness was -0.771 ± 0.1. For the variant P6T, the abundance fitness was -0.653 ± 0.072. Turning to P6L, the abundance fitness is -0.434 ± 0.045. The same measure, in the same setting: with L59G the figure was -0.511 ± 0.052; with D11E, 0.148 ± 0.049; with D11W, -0.793 ± 0.093. D11A: the abundance fitness is -0.607 ± 0.061. For D11Y, the abundance fitness is -0.717 ± 0.067.

In the case of D11R, the abundance fitness was -0.926 ± 0.07. For V57W, the abundance fitness was -0.397 ± 0.061. On to V57L, for which the abundance fitness was determined as 0.199 ± 0.034. On the same count and under the same terms, under F25C stands -0.701 ± 0.08; under I49N, -0.926 ± 0.076. Regarding I49R, the abundance fitness was -0.831 ± 0.053. Same read-out and setting: under I49V stands -0.398 ± 0.042; under L13C, -0.946 ± 0.1.

With L13R, the abundance fitness is -0.803 ± 0.06. H21R: the abundance fitness is -0.921 ± 0.056. On to H21M, for which the abundance fitness is -0.085 ± 0.046. Still for that read-out and setting: with Q5R the figure was -0.25 ± 0.049. The same measure, in the same setting: under Q5M stands -0.033 ± 0.048; under Q5F, 0.068 ± 0.048; under N17C, -0.486 ± 0.068. The same measure, in the same setting: under N17P stands -1.08 ± 0.094; under L33E, -0.962 ± 0.14; under L33R, -0.926 ± 0.068. Consider P3K, for which the abundance fitness was -0.279 ± 0.055.

On to S8H, for which the abundance fitness was -0.899 ± 0.09. Take S8W: the abundance fitness was -1.35 ± 0.24.

Take S8T: the abundance fitness was -0.244 ± 0.052. Consider R15P, for which the abundance fitness was -0.828 ± 0.072.

Turning to R15Q, the abundance fitness was -0.017 ± 0.045. Still for that read-out and setting: under R15T stands -0.164 ± 0.04; under L65V, -0.452 ± 0.056. For the variant V62G, the abundance fitness is -0.524 ± 0.065. Same read-out and setting: under V62T stands -0.476 ± 0.062; under V62A, -0.091 ± 0.049. D32N: the abundance fitness was -0.085 ± 0.049. Consider D43T, for which the abundance fitness was -0.19 ± 0.039. On to D43L, for which the abundance fitness was -0.894 ± 0.049. Take D43K: the abundance fitness was -0.117 ± 0.044.

Regarding F27G, the abundance fitness amounted to 0.166 ± 0.039. For the variant F27E, the abundance fitness was 0.491 ± 0.047.

Regarding F36I, the abundance fitness was -0.531 ± 0.069. For the variant F36A, the abundance fitness was -0.717 ± 0.067. On the same count and under the same terms, with F36K the figure was -1.19 ± 0.14; with L58F, -0.596 ± 0.099. As to L58K, the abundance fitness was -0.588 ± 0.085. With L47A, the abundance fitness was -0.698 ± 0.053. As to L47M, the abundance fitness was determined as 0.017 ± 0.048. As to T35Y, the abundance fitness is -0.587 ± 0.064. In the case of T35D, the abundance fitness came out at 0.108 ± 0.051. Regarding T35A, the abundance fitness is 0.067 ± 0.042. Still for that read-out and setting: with K37M the figure was -0.16 ± 0.057; with K37F, -0.946 ± 0.11. Regarding E20S, the abundance fitness was -0.332 ± 0.053. On to E20K, for which the abundance fitness was -0.755 ± 0.11. As for E20L, the abundance fitness is -0.559 ± 0.063. For E31T, the abundance fitness worked out at 0.251 ± 0.033. For the variant N48M, the abundance fitness is -0.516 ± 0.14. With N48E, the abundance fitness came to 0.084 ± 0.099. In the case of T60M, the abundance fitness is -0.385 ± 0.055. As to L44Q, the abundance fitness is -0.873 ± 0.089. For L38K, the abundance fitness turned out to be 0.117 ± 0.053. L38Q: the abundance fitness was 0.175 ± 0.044. Take L38V: the abundance fitness is -0.492 ± 0.046.

Turning to R50A, the abundance fitness is -0.301 ± 0.043. For the variant R50D, the abundance fitness is -0.057 ± 0.051. On the same count and under the same terms, with K7I the figure was -0.086 ± 0.042. Still for that read-out and setting: with R2V the figure was -0.472 ± 0.064; with R2F, -0.21 ± 0.066.

Consider R2P, for which the abundance fitness is -0.632 ± 0.091. For the variant R2Q, the abundance fitness was -0.412 ± 0.076. With H54G, the abundance fitness was -0.832 ± 0.055. On to H54V, for which the abundance fitness was -0.189 ± 0.037.

H54Y: the abundance fitness was -0.857 ± 0.074. The same measure, in the same setting: under D51G stands -0.75 ± 0.063. On the same count and under the same terms, under D34E stands 0.041 ± 0.048. Consider D34W, for which the abundance fitness is -0.704 ± 0.082. Regarding E10L, the abundance fitness was -0.532 ± 0.045.

In the next data set the parent is B2. Described as above. Conditions: Homo sapiens.
K1A: the abundance fitness was -0.456 ± 0.14. K1P: the abundance fitness was -0.822 ± 0.32. On to K1H, for which the abundance fitness is -0.109 ± 0.45. For K1T, the abundance fitness was -0.27 ± 0.12. As for K1R, the abundance fitness is -0.643 ± 0.2. In the case of K1D, the abundance fitness is -0.437 ± 0.27.

For the variant K1V, the abundance fitness is -0.241 ± 0.12.

In the case of K1E, the abundance fitness was -0.16 ± 0.12. As to K1G, the abundance fitness was -0.227 ± 0.095. On the same count and under the same terms, under K1L stands -0.21 ± 0.1; under K1Q, 0.088 ± 0.27; under K1W, -0.474 ± 0.12. With K1S, the abundance fitness was -0.198 ± 0.13. K1N: the abundance fitness came to 0.099 ± 0.13. The same measure, in the same setting: with K1Y the figure was -0.261 ± 0.25; with K1F, -0.159 ± 0.36. Consider T5A, for which the abundance fitness is -0.084 ± 0.067. Take T5E: the abundance fitness is -0.25 ± 0.11. Consider T5F, for which the abundance fitness is 0.168 ± 0.13. With T5C, the abundance fitness was -0.152 ± 0.11. On the same count and under the same terms, under G4D stands -0.083 ± 0.075; under G4Q, -0.151 ± 0.12; under G4E, -0.298 ± 0.11. Take G4W: the abundance fitness is -0.169 ± 0.11.

For G4I, the abundance fitness was -0.238 ± 0.19. Still for that read-out and setting: under G4M stands -0.164 ± 0.12.

In the case of G4N, the abundance fitness is -0.166 ± 0.15. For the variant G4L, the abundance fitness was -0.247 ± 0.071. For the variant G4A, the abundance fitness was -0.163 ± 0.081. On to G4Y, for which the abundance fitness is -0.213 ± 0.15.

As for G4R, the abundance fitness is -0.183 ± 0.068.

G4P: the abundance fitness was determined as 0.011 ± 0.099. As to G4H, the abundance fitness is -0.292 ± 0.19. Turning to G4S, the abundance fitness was -0.111 ± 0.058. With G4T, the abundance fitness is -0.089 ± 0.11.

With G4F, the abundance fitness is -0.348 ± 0.17.

In the case of G4C, the abundance fitness is -0.274 ± 0.14. The same measure, in the same setting: under Y2C stands -0.229 ± 0.1. Same read-out and setting: under Y2G stands -0.15 ± 0.093; under Y2N, 0.228 ± 0.19; under Y2R, -0.226 ± 0.083.

As to Y2D, the abundance fitness amounted to 0.021 ± 0.14. Regarding Y2M, the abundance fitness was -0.082 ± 0.12. Still for that read-out and setting: with Y2S the figure was -0.033 ± 0.078. With Y2P, the abundance fitness is -0.212 ± 0.1. Still for that read-out and setting: under Y2K stands -0.392 ± 0.23. Still for that read-out and setting: with Y2V the figure was -0.247 ± 0.087; with Y2L, -0.323 ± 0.065; with Y2F, 0.061 ± 0.11.

As to Y2H, the abundance fitness is -0.138 ± 0.1. With Y2T, the abundance fitness was -0.138 ± 0.093. On to Y2E, for which the abundance fitness is -0.238 ± 0.18.

Regarding Y2W, the abundance fitness is -0.36 ± 0.12.

With Y2I, the abundance fitness is -0.097 ± 0.27. Take F3C: the abundance fitness is -0.105 ± 0.086. Same read-out and setting: with F3D the figure was -0.274 ± 0.13; with F3M, -0.054 ± 0.087. F3N: the abundance fitness was -0.173 ± 0.097. As for F3P, the abundance fitness is -0.232 ± 0.09. With F3E, the abundance fitness is -0.192 ± 0.17. Turning to F3K, the abundance fitness was -0.103 ± 0.12. As for F3I, the abundance fitness amounted to 0.058 ± 0.094. On the same count and under the same terms, with F3W the figure was -0.166 ± 0.083; with F3R, -0.145 ± 0.059. On to F3V, for which the abundance fitness is -0.029 ± 0.068.

As for F3S, the abundance fitness was -0.167 ± 0.057. As to F3L, the abundance fitness was 0.027 ± 0.057.

For the variant F3G, the abundance fitness was -0.268 ± 0.09. On to F3T, for which the abundance fitness was -0.063 ± 0.087.

For F3H, the abundance fitness was -0.396 ± 0.13. On the same count and under the same terms, with F3Y the figure was -0.009 ± 0.14.

(Values after the Human Domainome abundance scans (Beltran et al. 2025).)
